The target in test [1] is T1, Recombinant human low affinity IL-12 receptor protein (clone No. 5) expressed in COS cells (human). Put plainly: equilibrium binding of labeled IL-12 to COS cells electroporated with clone number 5, Scatchard, single site (FIG. 19B). As to the method: (§1) Binding assays with labeled IL-12 or labeled 2-4E6 antibody were run as described hereinabove under anti human IL-12 receptor antibody. The binding data were analyzed and Kd values were calculated according to Scatchard, using the LIGAND program discussed hereinabove under anti human IL-12 receptor antibody. In vivo labeling (6 hours) of COS cells (3 ×10^5 cells per 35 mm diameter tissue culture dish) with […] was performed 3 days after transfection as described (Molecular Cloning Manual). Cells were washed in PBS and lysed in CHAPS lysis buffer (10 mM CHAPS-300 mM Nacl-50 mM Tris-HCl pH 7.4-2 mg/ml lodoacetamide-0.17 mg/ml PMSF), precleared by incubation with protein G Sepharose beads (50 µl packed beads per ml, Genex) and normal mouse serum (25% final concentration) at 4° C. overnight. […]
(§2) IL-12 receptor cDNA (clone number 5) (SEQ ID NO:1) was electroporated into COS cells and equilibrium binding of labeled human and murine IL-12 to the cells was performed and analyzed as described (R. Chizzonite, et al., 1992, J. Immunol., 148:3117). […] After transformation by the method of Scatchard, the equilibrium binding data was best described by a single receptor site model as determined by the LIGAND program. The site numbers indicated in FIG. 19 are calculated assuming that all cells are expressing receptors. […]

The target in test [2] is T1, Recombinant human low affinity IL-12 …. Nature of the test: equilibrium binding of labeled IL-12 to COS cells electroporated with clone number 5, Scatchard, single site (FIG. 19A). Here is the method: as §1, §2
Test [3] shares this target. Nature of the test: IL-12 binding to transfected COS cells; told in the discussion.
Test [4] shares this target. Nature of the test: steady state binding of 125I-IL-12 to rIL-12R expressing COS cells, Scatchard (FIGS. 4A and 4B). Here is the method:
The characteristics of the protein bound by mAb 2-4E6 fulfilled standard criterion for an IL-12R and therefore 2-4E6 was used in an expression cloning strategy to isolate a cDNA coding for the human IL-12R. A cDNA coding for the human IL-12R was isolated by this method (U. Gubler and A. O. Chua, unpublished observations). The IL-12R cDNA was engineered in a mammalian cell expression vector, transfected into COS-7 cells and the specificity for binding of ^125I-IL-12 and ^125I-2-4E6 was determined. […] This low affinity IL-12 binding site corresponds to the low affinity site seen in the binding assays with human cells that naturally express IL-12R. The binding of ^125I-2-4E6 to, rIL-12R expressed in the COS cells is saturable and specific and identifies approximately 500,000 sites/cell (FIGS. 4C and 4D).
For FIGS. 4A and 4B, COS cells were transfected with a plasmid expressing human rIL-12R as. described. Three days later, transfected cells (1×10^4 cells) were incubated for 2 hrs at room temperature with increasing concentration of ^125I-IL-12 in the absence (o) or presence (□) of 50 nM unlabeled IL-12. Total (o) and non-specific (□) cell bound radioactivity were determined as described. Specific binding of ^125I-IL-12 (▲) was calculated by subtracting non-specific binding from total binding.

For test [5] the target is unchanged. Nature of the test: IL-12 binding to intact transfected COS cells; told in the discussion.
Test [6] concerns the target Human IL-12 receptor subunit monomer (on murine CTLL transfectants, which only express monomers); monomer form … (human). Put plainly: IL-12 binding to murine CTLL transfectants stably expressing the IL-12 receptor subunit (monomers only).

B1: Recombinant murine IL-12 (ligand)
chain 1: MWELEKDVYVVEVDWTPDAPGETVNLTCDTPEEDDITWTSDQRHGVIGSGKTLTITVKEFLDAGQYTCHKGGETLSHSHLLLHKKENGIWSTEILKNFKNKTFLKCEAPNYSGRFTCSWLVQRNMDLKFNIKSSSSSPDSRAVTCGMASLSAEKVTLDQRDYEKYSVSCQEDVTCPTAEETLPIELALEARQQNKYENYSTSFFIRDIIKPDPPKNLQMKPLKNSQVEVSWEYPDSWSTPHSYFSLKFFVRIQRKKEKMKETEEGCNQKGAFLVEKTSTEVQCKGGNVCVQAQDRYYNSSCSKWACVPCRVRS
chain 2: RVIPVSGPARCLSQSRNLLKTTDDMVKTAREKLKHYSCTAEDIDHEDITRDQTSTLKTCLPLELHKNESCLATRETSSTTRGSCLPPQKTSLMMTLCLGSIYEDLKMYQTEFQAINAALQNHNHQQIILDKGMLVAIDELMQSLNHNGETLRQKPPVGEADPYRVKMKLCILLHAFSTRVVTINRVMGYLSSA
As for B1, the Kd in test [1] turned out to be 2.1 nM.

B2: Recombinant human IL-12 (Interleukin-12) (ligand)
chain 1: IWELKKDVYVVELDWYPDAPGEMVVLTCDTPEEDGITWTLDQSSEVLGSGKTLTIQVKEFGDAGQYTCHKGGEVLSHSLLLLHKKEDGIWSTDILKDQKEPKNKTFLRCEAKNYSGRFTCWWLTTISTDLTFSVKSSRGSSDPQGVTCGAATLSAERVRGDNKEYEYSVECQEDSACPAAEESLPIEVMVDAVHKLKYENYTSSFFIRDIIKPDPPKNLQLKPLKNSRQVEVSWEYPDTWSTPHSYFSLTFCVQVQGKSKREKKDRVFTDKTSATVICRKNASISVRAQDRYYSSSWSEWASVPCS
chain 2: RNLPVATPDPGMFPCLHHSQNLLRAVSNMLQKARQTLEFYPCTSEEIDHEDITKDKTSTVEACLPLELTKNESCLNSRETSFITNGSCLASRKTSFMMALCLSSIYEDLKMYQVEFKTMNAKLLMDPKRQIFLDQNMLAVIDELMQALNFNSETVPQKSSLEEPDFYKTKIKLCILLHAFRIRAVTIDRVMSYLNAS
In the case of B2, the Kd is 3.4 nM in test [2]; about 3 nM in test [3]; 2 to 6 nM in test [4]; 2 to 5 nM in test [5]; at least 50 nM in test [6].

The values are drawn from patent publication US5831007, “Human receptor for interleukin-12” (Hoffmann-La Roche Inc., dated 1998).
